From paper PMC3017672 (Journal of molecular biology, 2010)

Target: the molecule itself
Assay: cryo-EM structure

B1: bacteriophage 80α capsid protein gp47 (natural protein, Staphylococcus aureus bacteriophage 80α, UniProt A4ZFB3 15-324, looked up)
chain: ASNNVKPQVFNPDNVMMHEKKDGTLMNEFTTPILQEVMENSKIMQLGKYEPMEGTEKKFTFWADKPGAYWVGEGQKIETSKATWVNATMRAFKLGVILPVTKEFLNYTYSQFFEEMKPMIAEAFYKKFDEAGILNQGNNPFGKSIAQSIEKTNKVIKGDFTQDNIIDLEALLEDDELEANAFISKTQNRSLLRKIVDPETKERIYDRNSDSLDGLPVVNLKSSNLKRGELITGDFDKLIYGIPQLIEYKIDETAQLSTVKNEDGTPVNLFEQDMVALRATMHVALHIADDKAFAKLVPADKRTDSVPGEV
stoichiometry N: 420 copies
